{
  "source": "patent US8247168B2",
  "about": "“Regulation of gene expression by protein methylation” (University of Southern California, priority 1998, dated 2012)",
  "key": {"histone H3": {"biological_target": "T1, histone H3 (Bos taurus, UniProt P68432)", "T1 construct": "A 3.2-kb partial CARM1 cDNA clone with an open reading frame of 606 amino acids (CARM1(3-608)); purchased Boehringer Mannheim; host or cells: histone H3 from calf thymus; GST-CARM1 made in E. coli BL21", "test": "Identification of methylated amino acids in histone H3 by thin layer chromatography of the hydrolyzate", "assay_type": "biochemical, calf", "conditions": "histone H3 methylated by CARM1, thin layer chromatography", "procedure": "Histone H3 was incubated for 60 min at 30° C. in a 100 μl methylation reaction as described in FIG. 8, containing 0.024 mg/ml GST-CARM1 and 0.63 mg/ml H3. The reaction was stopped with 25 μl of 3% (v/v) trifluoroacetic acid (TFA), 15% (v/v) acetonitrile, and 100 μl was injected into a 3 cm×4.6 mm RP-300 reversed-phase guard column (Perkin Elmer-Brownlee) equilibrated with 80% solvent A (0.3% TFA in water) and 20% solvent B (0.3% TFA in acetonitrile). Methylated H3 was separated from unreacted S-adenosylmethionine using a gradient of 20-80% solvent B over 5 min at a flow rate of 1.0 ml/min. H3 eluted as a broad complex peak detected by monitoring absorbance at 214 nm. The H3 pool was reduced to dryness in a vacuum centrifuge and then subjected to acid hydrolysis in 6 N HCl at 112° C. for 20 h. […] Radioactivity in the fractions was determined by liquid scintillation counting, and peak identity was determined by comparison to derivatized standards including the three major forms of methylarginine and methyllysine. […] Radioactive spots corresponding to the positions of the three forms of methylarginine (which all separated from each other) were removed by scraping the chromatogram, and quantified by liquid scintillation counting. […]"}, "Gal4 DBD-GRIP1c": {"biological_target": "T2, Gal4 DBD-GRIP1c (Mus musculus, UniProt Q61026)", "T2 construct": "coding for Gal4 DBD-GRIP1c where GRIP1c is GRIP1 amino acids 1121-1462; expressed in transfected cells; host or cells: CV-1 cells", "test": "Reporter gene activation by Gal4 DBD-GRIP1c in transiently transfected CV-1 cells", "assay_type": "cell-based", "conditions": "co-expression with Gal4 DBD-GRIP1c, dose-dependent", "procedure": "A) CV-1 cells in 6-well dishes (3.3 cm diameter well) were transiently transfected with 0.5 of μg pM.GRIP1c (coding for Gal4 DBD-GRIP1c where GRIP1c is GRIP1 amino acids 1121-1462), 0.5 μg of GK1 reporter gene (luciferase gene controlled by Gal4 binding sites) (Webb, P. et al., (1998) Mol. Endocrinol. 12:1605), and 0-0.8 μg of pSG5.HA-CARM1, using Superfectin (Qiagen) according to manufacturer's protocol. Total DNA was adjusted to 2.0 μg per well with the appropriate amount of pSG5. Cell extracts were prepared approximately 48 h after transfection and assayed with Promega Luciferase Assay kit. Relative light units of luciferase activity presented are the mean and standard deviation of three transfected wells. B) CV-1 cells were transfected as in A with the indicated amount of pM.GRIP1c and zero or 0.5 μg of pSG5.HA-CARM1.\nIn transient transfections of CV-1 cells, Gal4 DBD-GRIP1c weakly activates expression of a reporter gene with a promoter containing Gal4 binding sites; co-expression of CARM1 enhances reporter gene activity in a dose-dependent manner and provides a maximum stimulation of more than 10-fold (FIG. 5). CARM1 expression has little if any effect on the activity of Gal4DBD alone (FIG. 6A). CARM1 also enhances the activity of full length GRIP1 fused to Gal4DBD."}},
  "data": [
    {"molecule": "CARM1: novel murine protein arginine methyltransferase and transcriptional coactivator, 608 amino acids (protein, listed as Mus musculus) MAAAAATAVGPGAGSAGVAGPGGAGPCATVSVFPGARLLTIGDANGEIQRHAEQQALRLEVRAGPDAAGIALYSHEDVCVFKCSVSRETECSRVGRQSFIITLGCNSVLIQFATPHDFCSFYNILKTCRGHTLERSVFSERTEESSAVQYFQFYGYLSQQQNMMQDYVRTGTYQRAILQNHTDFKDKIVLDVGCGSGILSFFAAQAGARKIYAVEASTMAQHAEVLVKSNNLTDRIVVIPGKVEEVSLPEQVDIIISEPMGYMLFNERMLESYLHAKKYLKPSGNMFPTIGDVHLAPFTDEQLYMEQFTKANFRYQPSFHGVDLSALRGAAVDEYFRQPVVDTFDIRILMAKSVKYTVNFLEAKEGDLHRIEIPFKFHMLHSGLVHGLAFWFDVAFIGSIMTVWLSTAPTEPLTHWYQVRCLFQSPLFAKAGDTLSGTCLLIANKRQSYDISIVAQVDQTGSKSSNLLDLKNPFFRYTGTTPSPPPGSHYTSPSENMWNTGSTYNLSSGVAVAGMPTAYDLSSVIAGGSSVGHNNLIPLANTGIVNHTHSRMGSIMSTGIVQGSSGAQGGGGSSSAHYAVNNQFTMGGPAISMASPMSIPTNTMHYGS", "values": [
      {"measurement": "radiolabel migrating with N^G,N^G-dimethylarginine", "setting": "histone H3", "value": "approximately 70%"},
      {"measurement": "radiolabel migrating with N^G-monomethylarginine", "setting": "histone H3", "value": 30, "unit": "%"},
      {"measurement": "maximum stimulation of reporter gene activity", "setting": "Gal4 DBD-GRIP1c", "value": "more than 10 fold"}
    ]}
  ]
}
